Source: patent US6916645B2, “Amylases” (Kao Corporation, priority 1998, dated 2005)

B1: K36: purified liquefying alkaline amylase obtained from strain Bacillus sp. KSM-K36 (FERM BP-6945); SEQ ID NO:2 (protein, listed as Bacillus sp.)
chain: MKRWVVAMLAVLFLFPSVVVADGLNGTMMQYYEWHLENDGQHWNRLHDDAEALSNAGITAIWIPPAYKGNSQADVGYGAYDLYDLGEFNQKGTVRTKYGTKAQLERAIGSLKSNDINVYGDVVMNHKLGADFTEAVQAVQVNPSNRWQDISGVYTIDAWTGFDFPGRNNAYSDFKWRWFHFNGVDWDQRYQENHLFRFANTNWNWRVDEENGNYDYLLGSNIDFSHPEVQEELKDWGSWFTDELDLDGYRLDAIKHIPFWYTSDWVRHQRSEADQDLFVVGEYWKDDVGALEFYLDEMNWEMSLFDVPLNYNFYRASKQGGSYDMRNILRGSLVEAHPIHAVTFVDNHDTQPGESLESWVADWFKPLAYATILTREGGYPNVFYGDYYGIPNDNISAKKDMIDELLDARQNYAYGTQHDYFDHWDIVGWTREGTSSRPNSGLATIMSNGPGGSKWMYVGQQHAGQTWTDLTGNHAASVTINGDGWGEFFTNGGSVSVYVNQ
B2: K38: purified liquefying alkaline amylase obtained from strain Bacillus sp. KSM-K38 (FERM BP-6946); SEQ ID NO:4 (protein, listed as Bacillus sp.)
chain: MRRWVVAMLAVLFLFPSVVVADGLNGTMMQYYEWHLENDGQHWNRLHDDAAALSDAGITAIWIPPAYKGNSQADVGYGAYDLYDLGEFNQKGTVRTKYGTKAQLERAIGSLKSNDINVYGDVVMNHKMGADFTEAVQAVQVNPTNRWQDISGAYTIDAWTGFDFSGRNNAYSDFKWRWFHFNGVDWDQRYQENHIFRFANTNWNWRVDEENGNYDYLLGSNIDFSHPEVQDELKDWGSWFTDELDLDGYRLDAIKHIPFWYTSDWVRHQRNEADQDLFVVGEYWKDDVGALEFYLDEMNWEMSLFDVPLNYNFYRASQQGGSYDMRNILRGSLVEAHPMHAVTFVDNHDTQPGESLESWVADWFKPLAYATILTREGGYPNVFYGDYYGIPNDNISAKKDMIDELLDARQNYAYGTQHDYFDHWDVVGWTREGSSSRPNSGLATIMSNGPGGSKWMYVGRQNAGQTWTDLTGNNGASVTINGDGWGEFFTNGGSVSVYVNQ
B3: Duramyl: amylase derived from Bacillus licheniformis, purified from a Novo product in granular form (protein, UniProt P06278 30-512, looked up)
Alpha-amylase: ANLNGTLMQYFEWYMPNDGQHWKRLQNDSAYLAEHGITAVWIPPAYKGTSQADVGYGAYDLYDLGEFHQKGTVRTKYGTKGELQSAIKSLHSRDINVYGDVVINHKGGADATEDVTAVEVDPADRNRVISGEHRIKAWTHFHFPGRGSTYSDFKWHWYHFDGTDWDESRKLNRIYKFQGKAWDWEVSNENGNYDYLMYADIDYDHPDVAAEIKRWGTWYANELQLDGFRLDAVKHIKFSFLRDWVNHVREKTGKEMFTVAEYWQNDLGALENYLNKTNFNHSVFDVPLHYQFHAASTQGGGYDMRKLLNSTVVSKHPLKAVTFVDNHDTQPGQSLESTVQTWFKPLAYAFILTRESGYPQVFYGDMYGTKGDSQREIPALKHKIEPILKARKQYAYGAQHDYFDHHDIVGWTREGDSSVANSGLAALITDGPGGAKRMYVGRQNAGETWHDITGNRSEPVVINSEGWGEFHVNGGSVSIYVQR

What was measured:
[1] = Specific activity: amylase activity measuring method and protein assay kit; type: biochemical; details: pH 10 glycine sodium hydroxide buffer, 50° C., 15 minutes, soluble starch as substrate
Experimental: In a test tube, 0.5 mL of the 1% aqueous solution of soluble starch, 0.2 mL of the 250 mM glycine sodium hydroxide buffer (pH 10) and 0.2 mL of deionized water (said mixture will hereinafter be called “substrate solution”) were charged, followed by preliminary heating for about 5 minutes in a water bath of 50° C. After preliminary heating, 0.1 ml of a properly diluted enzyme solution was added to the reaction mixture, followed by reaction at 50° C. for 15 minutes. After completion of the reaction, 1.0 mL of the DNS reagent was added to the reaction mixture, followed by color development by heating in boiling water for 5 minutes. Immediately after that, the solution was allowed to cool down in an ice-water bath. The resulting solution, after cooling, was added with 4.0 mL of deionized water, followed by mixing. The absorbance of the solution at 535 nm was then measured.
In a test tube, 0.9 mL of the substrate solution was charged, followed by the addition of 1.0 mL of the DNS reagent and then with 0.1 mL of an enzyme solution. The resulting mixture was heated in a boiling water for 5 minutes to cause color development. […] The absorbance of the solution at 535 nm was then measured.
In a test tube, 0.9 mL of the substrate solution was charged, followed by the addition of 1.0 mL of the DNS reagent and then with 0.1 mL of each of the glucose solutions for a calibration curve having various concentrations. […] The absorbance of the solution at 535 nm was then measured. On a graph, the glucose concentration (μmol/0.1 mL) was plotted as abscissa and the absorbance as ordinate and the slope of those linear plots was determined by the least square method. A conversion factor (F) was calculated in accordance with the following formula: Conversion Factor (F)=[1/(slope)]×[1/15]×[1000/0.1]
With the amount of the enzyme which formed reducing sugar equivalent to 1 μmol of glucose in one minute was defined as one unit (1U), the titer of the enzyme was calculated in accordance with the following formula: Activity of amylase (U/L)=[δ-absorbance]×[conversion factor (F)]×[dilution ratio] […]

[2] = EDTA or EGTA resisting performance (residual enzyme activity); type: physicochemical; details: 0 to 100 mM EDTA or EGTA, pH 10, 30, 40 or 45° C., 30 minutes; FIGS. 1 and 2
Experimental: (§1) After 9.3 g of EDTA (product of Sigma Chemical Co., Ltd.) was dissolved in about 80 mL of deionized water, the resulting solution was adjusted to pH 8 with an about SN aqueous sodium hydroxide solution by using a pH meter. To the pH-adjusted solution, deionized water was added to give a total volume of 100 mL, whereby a 250 mM EDTA solution was prepared. The resulting solution was diluted with deionized water to prepare 10 to 100 mM EDTA solutions.
as §1, with “9.5” for “9.3”, “EGTA” for “EDTA”, “5N” for “SN”
In a test tube, 0.1 mL of the 10 mM EDTA solution, 0.2 mL of the 250 mM glycine sodium hydroxide buffer (pH 10) and 0.1 mL of deionized water were charged, followed by preliminary heating in a water bath of 45° C. for about 5 minutes. […] Thirty minutes later, a 0.1 mL portion of the resulting solution was added to 0.9 mL of the substrate solution preliminary heated in a water bath of 50° C. and the residual enzyme activity was measured in accordance with the amylase activity measuring method. […]

[3] = Resisting performance against citric acid or zeolite (residual enzyme activity); type: physicochemical; details: 0 to 0.5% trisodium citrate or synthetic zeolite A-3, pH 10, 40 or 45° C., 30 minutes; FIGS. 3 to 6
Experimental: To a 50 mM glycine sodium hydroxide buffer (pH 10) containing trisodium citrate dihydrate (guaranteed class product of Wako Pure Chemical Industries, Ltd.) or synthetic zeolite A-3 (product of Wako Pure Chemical Industries, Ltd.) having each of final concentrations of 0 to 0.5%, a purified enzyme properly diluted with a 10 mM glycine sodium hydroxide buffer (pH 10) was added, followed by treatment at each of predetermined temperatures (40° C. and 45° C.) for 30 minutes. The residual enzyme activity of the reaction mixture was measured in accordance with the amylase activity measuring method [with a 50 mM glycine sodium hydroxide buffer (pH 10)].

[4] = Effects of metal salts (inhibition ratio); type: biochemical; details: pH 10, 30° C., 30 minutes; for inhibition ratio by Mn2+: 1 mM Mn2+
Experimental: Each of them was treated at pH 10 and 30° C. for 30 minutes in the presence of various metal salts, whereby their effects were studied.

Row | Molecule | Specific activity [1] | resisting performance against EDTA or EGTA (residual activity) [2] | resisting performance against citric acid or zeolite (residual activity) [3] | inhibition ratio by Mn2+ [4] | inhibition ratio by Cd2+ (K38 sentence) ([4]; 1 mM Cd2+) | inhibition ratio by Sr2+ ([4]; 1 mM Sr2+)
1 | B1 | 4300 U/mg | not influenced by highly concentrated EDTA or EGTA | influenced by neither citric acid nor zeolite | about 95% | – | –
2 | B2 | 3600 U/mg | not influenced by highly concentrated EDTA or EGTA | influenced by neither citric acid nor zeolite | about 75% | about 30% | about 30%
3 | B3 | 500 U/mg | – | – | – | – | –
